Reference: US20210277144A1 (SHANGHAI INSTITUTE OF BIOLOGICAL PRODUCTS, published 2021)
Substitutions are numbered along the chain they refer to.

B1: humanized antibody h1044-0 (antibody, V domains shown)
VH: QVQLVQSGAEVKKPGSSVKVSCKASGGTFSNYWIDWVRQAPGQGLEWMGEILPGSGGTDYNEKFKGRVTITADTSTSTAYMELSSLRSEDTAVYYCARDDYDVFAYWGQGTLVTVSS
VL: DIVMTQSPGTLSLSPGERATLSCRSSKSLLHSNGITYLYWYQQKPGQAPRLLIYQMSNLASGIPDRFSGSGSGTDFTLTISRLEPEDFAVYYCAQNLELPWTFGQGTKVEIKR
notes: also called humanized h1044-0 antibody after CDR transplantation
B2: humanized antibody hu1044-1 (VL69 back mutation) (antibody, human IgG1, V domains shown)
VH: B1 VH
VL: B1 VL with G69S
notes: h1044-0 with Gly to Ser at VL69
B3: humanized antibody hu1044 (VL69, VH38 back mutation) (antibody, V domains shown)
VH: B1 VH with R38K
VL: B1 VL with G69S
notes: also called final humanized antibody hu1044
B4: humanized antibody hu1044-3 (VL69, VH48 back mutation) (antibody, human IgG1, V domains shown)
VH: B1 VH with M48I
VL: B1 VL with G69S
B5: humanized antibody hu1044-4 (VL69, VH68 back mutation) (antibody, human IgG1, V domains shown)
VH: B1 VH with V68A
VL: B1 VL with G69S
B6: humanized antibody hu1044-7 (VL63/69, VH67/68 back mutation) (antibody, human IgG1, V domains shown)
VH: B1 VH with R67K, V68A
VL: B1 VL with I63V, G69S
B7: humanized antibody hu1044-6 (VL63/69, VH68 back mutation) (antibody, human IgG1, V domains shown)
VH: B1 VH with V68A
VL: B1 VL with I63V, G69S
B8: humanized antibody hu1044-5 (VL63/69, VH38 back mutation) (antibody, human IgG1, V domains shown)
VH: B1 VH with R38K
VL: B1 VL with I63V, G69S
B9: 1044 human-mouse chimeric antibody (antibody, V domains shown)
VH: EVQLQQSGTELMKPGASVKISCKATGGTFSNYWIDWVKQRPGHGLEWIGEILPGSGGTDYNEKFKGKATFTADTSSNTAYMQLSSLTSEDSAVYYCARDDYDVFAYWGQGTLVTVSA
VL: DIVMTQAAFSNPVTLGTSASISCRSSKSLLHSNGITYLYWYLQKPGQSPQLLIYQMSNLASGVPDRFSSSGSGTDFTLRISRVEAEDVGVYYCAQNLELPWTFGGGTKLEIKR
B10: humanized antibody with VH25 back mutation (antibody, V domains shown)
VH: B1 VH with S25T
VL: B1 VL
B11: humanized antibody with VH77 back mutation (antibody, V domains shown)
VH: B1 VH with S77N
VL: B1 VL
B12: humanized antibody with VH1 back mutation (antibody, V domains shown)
VH: B1 VH with Q1E
VL: B1 VL
B13: humanized antibody with VH76 back mutation (antibody, V domains shown)
VH: B1 VH with T76S
VL: B1 VL

Each binder was assayed against T1, HER3 extracellular domain recombinant protein (human, UniProt P21860 20-643) (assay: SPR, ProteOn XPR36; compared with the chimeric antibody).
T1 construct: extracellular domain; also called HER3 extracellular domain protein; HER3 protein
T1 sequence (P21860 20-643): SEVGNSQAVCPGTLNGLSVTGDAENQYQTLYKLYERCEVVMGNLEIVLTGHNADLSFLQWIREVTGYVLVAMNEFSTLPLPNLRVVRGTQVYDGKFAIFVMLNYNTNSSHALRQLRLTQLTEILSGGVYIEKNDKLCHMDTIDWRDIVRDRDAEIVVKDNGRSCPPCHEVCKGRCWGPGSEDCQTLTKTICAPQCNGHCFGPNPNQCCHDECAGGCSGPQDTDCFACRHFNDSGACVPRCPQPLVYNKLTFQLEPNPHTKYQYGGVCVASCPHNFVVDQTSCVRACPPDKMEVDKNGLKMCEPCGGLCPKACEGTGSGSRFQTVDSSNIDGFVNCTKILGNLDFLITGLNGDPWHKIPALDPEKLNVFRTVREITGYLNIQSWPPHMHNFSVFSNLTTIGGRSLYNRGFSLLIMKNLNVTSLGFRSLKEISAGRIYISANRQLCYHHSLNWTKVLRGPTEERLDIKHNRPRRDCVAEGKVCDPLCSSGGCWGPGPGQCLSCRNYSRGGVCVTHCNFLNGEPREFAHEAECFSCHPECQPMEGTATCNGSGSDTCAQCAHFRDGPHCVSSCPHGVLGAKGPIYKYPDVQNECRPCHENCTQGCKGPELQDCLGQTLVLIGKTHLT
Experimental: (§1) And the channels were turned to horizontal position, and Channels 1-5 were injected with 20 nM, 10 nM, 5 nM, 2.5 nM, 1.25 nM of samples of HER3 extracellular domain protein respectively, and Channel 6 was injected with buffer. 5 kinetic response curves were obtained, respectively representing the results of the reaction between different concentrations of antigen and the captured antibody. The Langmuir model was used to calculate the affinity constants KD (M) of each chimeric antibody and humanized antibody mutant.
In the case of B1, the “fold lower affinity than the chimeric antibody” value is reported as about 32 fold. With B2 the “fold difference in affinity from the chimeric antibody” value was about 2 fold. B3 was tested, and the “fold of the affinity constant of the chimeric antibody” value (shortened to “fold … of the chimeric antibody”) was at most 2 fold. B4 was tested, and the “fold … of the chimeric antibody” value was at most 2 fold. B5 was tested, and the “fold … of the chimeric antibody” value was at most 2 fold.

Each binder was assayed against T1, HER3 extracellular domain recombinant … (assay: SPR, ProteOn XPR36; antibody captured by goat anti-human antibody, HER3 extracellular domain 1.25-20 nM as analyte, Langmuir model).
Experimental: as §1
B6 showed a Kd of 0.375 nM, a koff of 0.000376 s⁻¹ and a kon of 1e+06 M⁻¹ s⁻¹. Binder B2 has a Kd of 0.595 nM, a koff of 0.000502 s⁻¹ and a kon of 843000 M⁻¹ s⁻¹. Binder B7 has a Kd of 0.42 nM, a koff of 0.00038 s⁻¹ and a kon of 904000 M⁻¹ s⁻¹. With B8 the Kd was 0.419 nM, the koff was 0.000353 s⁻¹ and the kon was 844000 M⁻¹ s⁻¹. Work on B3 yielded a Kd of 0.442 nM, a koff of 0.000386 s⁻¹ and a kon of 875000 M⁻¹ s⁻¹. B4 was tested, and the Kd was 0.554 nM, the koff was 0.000494 s⁻¹ and the kon was 882000 M⁻¹ s⁻¹. Binder B5 has a Kd of 0.461 nM, a koff of 0.000388 s⁻¹ and a kon of 841000 M⁻¹ s⁻¹. B9 was tested, and the Kd was 0.278 nM, the koff was 0.000293 s⁻¹ and the kon was 1.05e+06 M⁻¹ s⁻¹.

Molecular target: T1, HER3 extracellular domain recombinant …
Experiment: as above
Remark: another data set of the same source
Experimental: as §1
Work on B1 yielded a Kd of 8.48 nM, a koff of 0.00427 s⁻¹ and a kon of 503000 M⁻¹ s⁻¹. B10 was tested, and the Kd was 6.02 nM, the koff was 0.00317 s⁻¹ and the kon was 525000 M⁻¹ s⁻¹. With B11 the Kd was 7.07 nM, the koff was 0.00327 s⁻¹ and the kon was 463000 M⁻¹ s⁻¹. In the case of B12, the Kd is reported as 9.14 nM, the koff is reported as 0.00382 s⁻¹ and the kon is reported as 418000 M⁻¹ s⁻¹. In the case of B13, the Kd is reported as 6.49 nM, the koff is reported as 0.00344 s⁻¹ and the kon is reported as 531000 M⁻¹ s⁻¹. Work on B9 yielded a Kd of 0.262 nM, a koff of 0.000229 s⁻¹ and a kon of 874000 M⁻¹ s⁻¹.
